Biological target: T1, NLRP3 (NLR family, pyrin domain containing 3), endogenous (human (endogenous in THP-1), UniProt Q96P20 1-1036)
T1 construct: NLRP3, endogenous in PMA-differentiated, LPS-primed THP-1 cells; also called NLPR3; source: endogenous, lysate or cytosolic fraction of LPS-primed THP-1 macrophage cells
Test: co-IP; NLRP3 immunoprecipitated from lysates of LPS-primed THP-1 macrophage cells, stimulated with ATP (5 mM, 1 h) or not; immunoblot for cytochrome c; lysis buffer 20 mM HEPES pH 7.4, 0.5% Triton X-100, 0.5% CHAPS, 10% glycerol; 4°C
Conditions: partners not purified

T1 sequence (Q96P20 whole entry, the tested form may be a part): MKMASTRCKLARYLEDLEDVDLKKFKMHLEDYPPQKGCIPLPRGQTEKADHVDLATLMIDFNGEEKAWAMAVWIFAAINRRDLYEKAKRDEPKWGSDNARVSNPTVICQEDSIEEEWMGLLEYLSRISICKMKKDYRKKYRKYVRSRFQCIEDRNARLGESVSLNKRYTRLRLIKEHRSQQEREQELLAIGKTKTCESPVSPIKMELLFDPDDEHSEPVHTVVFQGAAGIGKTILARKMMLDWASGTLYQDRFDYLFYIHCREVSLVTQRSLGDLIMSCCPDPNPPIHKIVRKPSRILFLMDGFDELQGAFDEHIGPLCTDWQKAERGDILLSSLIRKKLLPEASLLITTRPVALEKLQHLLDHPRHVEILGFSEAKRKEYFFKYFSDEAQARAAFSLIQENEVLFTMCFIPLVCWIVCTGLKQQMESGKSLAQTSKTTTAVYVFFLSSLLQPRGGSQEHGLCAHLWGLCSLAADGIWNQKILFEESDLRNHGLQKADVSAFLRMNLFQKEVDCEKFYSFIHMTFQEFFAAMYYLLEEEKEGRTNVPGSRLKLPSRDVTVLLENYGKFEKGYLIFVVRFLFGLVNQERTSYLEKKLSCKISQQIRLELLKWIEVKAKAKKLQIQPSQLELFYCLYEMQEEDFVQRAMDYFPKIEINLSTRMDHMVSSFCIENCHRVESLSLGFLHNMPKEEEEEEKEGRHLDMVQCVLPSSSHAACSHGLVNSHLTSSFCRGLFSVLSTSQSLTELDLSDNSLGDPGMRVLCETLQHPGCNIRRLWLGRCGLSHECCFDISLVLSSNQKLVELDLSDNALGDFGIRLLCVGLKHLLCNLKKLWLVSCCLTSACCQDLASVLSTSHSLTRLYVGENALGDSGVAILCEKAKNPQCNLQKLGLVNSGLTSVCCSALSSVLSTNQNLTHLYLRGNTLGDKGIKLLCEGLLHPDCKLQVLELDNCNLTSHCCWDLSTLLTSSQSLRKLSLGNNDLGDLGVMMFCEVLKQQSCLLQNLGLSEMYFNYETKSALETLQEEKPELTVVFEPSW

B1: cytochrome c, endogenous (natural protein)
chain: not shown
notes: cytochrome c, endogenous in PMA-differentiated, LPS-primed THP-1 cells; source: endogenous, lysate or cytosolic fraction of LPS-primed THP-1 macrophage cells
fold more cytochrome c co-precipitated with NLRP3 after ATP against no ATP: ~3 fold

Source: publication PMC5193325, “Cytochrome c Negatively Regulates NLRP3 Inflammasomes” (PLoS ONE, 2016)
